# Data as given in the supplement of paper PMC9732359.
# ± gives the uncertainty stated by the source.
# Test: protein stability index of a GFP-peptide fusion (yeast GPS) (PSI 1-4); higher = more stable; sorted into four equal gates, so the index is relative within each strain
# Conditions: doa10∆
# Outline: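 For each peptide, the protein stability index sums the read frequency in every gate after multiplying it by the gate number. Read frequencies came from plasmids that were PCR-amplified from each gate and Illumina-sequenced, with reads assigned to strains by barcodes. The gates were four equal bins of GFP/Cherry fluorescence ratio applied to mid-log yeast in leucine-free medium carrying a pooled library of tiled 17-residue yeast protein peptides fused downstream of GFP on a Cherry-expressing plasmid.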
row,Sequence,protein stability index
1,HAMGGREGLIDTAVKTA [RPO21],1.24 ± 0.076
2,HCIDYLRKNKLGYARFI [SMC4],1.19 ± 0.036
3,HDEKLSDELHNQSTIYE [LIN1],2.91 ± 0.11
4,HDSSNGLFQVLHNFESV [NUT1],3.16 ± 0.064
5,HDVLQKLNTLSEILSFD [YML103C/NUP188],2.99 ± 0.068

# Same assay, conditions: pdr5∆
row,Sequence,protein stability index
1,GGGRVDKPLLKAGRAFH [RPL2A],3.11 ± 0.043
2,GGHSLEEISFSLSEGCD [PRP28],2.42 ± 0.067
3,GGPWFTDGELDIEFINS [RPC34],3.42 ± 0.12
4,GGRYVYPVHEAHKGQIV [SNU114],2.97 ± 0.11
5,GGSGNGDDVVNDVQGID [RPP1],3.55 ± 0.25
6,GGSRGGGSNYMSNLPFG [RPC31],3.21 ± 0.18
7,GHIGAYLIVAGVDPTGS [PUP1],1.83 ± 0.093
8,GHVGSVQISNIPDIGDL [PRP8],2.95 ± 0.053
9,GIAIGLNKGKKVTSMTP [RPL36A],3.13 ± 0.12
10,GIDPQDLKKLNLNVYIQ [CDC53],1.7 ± 0.12
11,GILRRKSESDELQMRSF [RRP4],3.04 ± 0.17
12,GINPNTFRIFHNHDTGC [YDL088C/ASM4],1.85 ± 0.082
13,GIRIKGKIVGFDEFMNV [SME1],2.96 ± 0.098
14,GISKKTRIAGVVYHPSN [RPS8A],2.456 ± 0.024
15,GKEFEARNLIEDEDDGE [RPC53],3.58 ± 0.14
16,GKIPTLKISLIQIFRAH [PRP8],1.44 ± 0.044
17,GKLVVSQEMVPRYFSEA [SIR3],3.43 ± 0.17
18,GKVVGDKWESYLNLLQE [RPB10],2.65 ± 0.086
19,GLFGNKPALGSLGSSST [YGR119C/NUP57],2.63 ± 0.084
20,GLFGNKPNNTANTGGGL [YGL172W/NUP49],3.65 ± 0.13
21,GLGETSGDNHTQQSHEQ [RPT4],3.19 ± 0.21
22,GLLDLERVIVVTGFAEV [FAS2],2.32 ± 0.095

row,Sequence,protein stability index
1,GLLSQAIGCIERSDLLP [YJR042W/NUP85],2.37 ± 0.064
2,GLRTENVLDYFAESPFF [MED6],3.25 ± 0.18
3,GLSKEDDVRDFVIRREV [RPS6A],3.42 ± 0.081
4,GLTNWAAAYATGLLIAR [RPL5],1.26 ± 0.084
5,GLVDENKVEAFKSLYTF [YAR002W/NUP60],2.65 ± 0.08
6,GLWGFSTATRNVTMIDD [COR1],3.1 ± 0.08
7,GMPNMPGMPNMPGMPNM [SRP54],3.21 ± 0.064
8,GMVKLNEYPVADAVTKD [REC8],2.87 ± 0.2
9,GNAPATPSSDQNPLPTR [SOH1],2.98 ± 0.065
10,GNENFEDFDVEHFSDEE [RPO26],3.1 ± 0.088
11,GNGLVDENKVEAFKSLY [YAR002W/NUP60],3.14 ± 0.12
12,GNIFADLLPNSFAKLVP [SMC2],2.86 ± 0.04
13,GNMCRGGRMFAPTKTWR [RPL4A],2.61 ± 0.12
14,GNRNSSSVFLPSRKDCM [BRR2],3.16 ± 0.071
15,GNSFNKSSNDTIEHAAD [YCG1],2.67 ± 0.048
16,GPEITPEEATTIFSVMV [PRP8],2.37 ± 0.14
17,GPSIYKTDPAGYYVGYK [SCL1],3.4 ± 0.08
18,GPVGKECADLWPRVASN [RPL23A],3.3 ± 0.11
19,GQEYPRIIGLSATLPNY [BRR2],2.2 ± 0.044
20,GQFVTLGCTLVTLLANV [RMP1],2.89 ± 0.11
21,GQRPDRATTYEKLTMVF [SIN4],1.48 ± 0.067
22,GQVSMSQFNGSGNGSNP [PGD1],3.3 ± 0.12

row,Sequence,protein stability index
1,GRETILSNFNADINLEE [SIR3],3.17 ± 0.11
2,GRKHVAALRTVKSLVDN [RPL9A],3.17 ± 0.079
3,GRLASTIAKQVLNGQKI [RPL16B],2.69 ± 0.11
4,GRLEIFKIHTAKVKKTG [RPT4],2.89 ± 0.12
5,GRPETYIWRYLPAPPVC [RPO31],1.57 ± 0.12
6,GRPRYDTFGEGIIITDQ [BRR2],2.85 ± 0.14
7,GRSHTRNSTRSSGFNED [REC8],3.55 ± 0.23
8,GRSNEIVKTTTKQRLDA [PRP8],2.78 ± 0.11
9,GSADIGASVISLTKDKS [SIR4],3.12 ± 0.067
10,GSAINHHRIFDSSAHFK [YMR129W/POM152],2.46 ± 0.062
11,GSDKQMFTQIYLERIEL [YML103C/NUP188],2.36 ± 0.086
12,GSENKRGSLDSEHVFDY [NUT1],3.29 ± 0.11
13,GSFKYITARSAFVEFGA [SWP82],3.11 ± 0.074
14,GSGAANENPYNNGVSNL [COR1],2.94 ± 0.14
15,GSGQPDNDTVVTNDDKS [SRB8],3.29 ± 0.17
16,GSKISSNDLDKFFQKKI [YGL172W/NUP49],2.02 ± 0.076
17,GSKSDGSAATSGFEFSK [RPN1],3.09 ± 0.14
18,GSRKVAGILRGYDIFLN [SMX2],1.67 ± 0.08
19,GSSKPAFSFGAKPDEKK [YJL041W/NSP1],3.18 ± 0.14
20,GSVSEETELFEPGVLNT [ECM29],3 ± 0.087
21,GTAIGAIGAQSIGEPGT [RPO31],3.13 ± 0.092
22,GTCFGGSKLEDMSKILV [RET1],3.3 ± 0.096

row,Sequence,protein stability index
1,GTILSSAGDDGKVRLWK [YGL100W/SEH1],3.51 ± 0.1
2,GTLEGHNGWVTSLATSA [ASC1],1.87 ± 0.069
3,GTLLREDDNTPAGHAGN [YDL088C/ASM4],2.79 ± 0.086
4,GTNKDMILKLVCQVTKF [ECM29],1.26 ± 0.037
5,GTNNISQHGQGNNPSWV [YDL088C/ASM4],3.39 ± 0.059
6,GTSTTHGSISPQEESVS [SIR3],2.56 ± 0.045
7,GTVSRVNRLLSVIPLKG [RRP4],1.38 ± 0.05
8,GTYIQERNPTQRPQRRY [RPS10A],3.1 ± 0.041
9,GVCNHAFHLHCINKWIK [HRT1],2.49 ± 0.04
10,GVDLKLKYSKRRSLKKQ [CSN12],2.75 ± 0.069
11,GVEQLHYTGISQSACRE [SSN3],2.38 ± 0.085
12,GVGKRKVWLDPNETSEI [RPL19A],3.69 ± 0.24
13,GVVQMVTDNKTPEMNVT [TAF14],2.67 ± 0.22
14,GVVRYVMESGAKGCEVV [RPS3],1.67 ± 0.1
15,GVWDVDNPLRQIPHFNN [BRR2],3.24 ± 0.083
16,GWKPYYKLFIWLVVPTI [YML031W/NDC1],1.2 ± 0.044
17,GYDIFLNVVLDDAMEIN [SMX2],3.07 ± 0.075
18,GYDKSGAHLLEFQPSGN [PRE5],3.22 ± 0.18
19,GYLIQVLLTFLQDELHK [YCS4],2.02 ± 0.088
20,HAKRKTVTSLDVVYALK [HHF1],3.57 ± 0.14
21,HAMGGREGLIDTAVKTA [RPO21],1.35 ± 0.065
22,HCIDYLRKNKLGYARFI [SMC4],1.21 ± 0.039
